Columns and labels:
Conditions in all cases: both partners purified
SPCH-ACTL (285-364) = biological target: T1, SPCH-ACTL (285-364) (Arabidopsis thaliana, UniProt Q700C7 285-364); experiment: ITC; Malvern PEAQ-ITC; 150 µM SCRM ACTL/SCRM L484F ACTL injected into 15 µM SPCH ACTL/MUTE ACTL; PBS, pH 7.2 (Table S3; methods: pH 7.4); 25 °C; means of two experiments
T1 construct: also called SPCH ACTL domain; source: E. coli BL21, purified (glutathione resin, thrombin, Superdex-200); not shown: GST, N-terminal, cleaved
T1 sequence (looked up): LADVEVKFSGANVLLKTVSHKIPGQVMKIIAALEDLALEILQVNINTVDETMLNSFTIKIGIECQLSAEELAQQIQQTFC

MUTE-ACTL (114-202) = biological target: T2, MUTE-ACTL (114-202) (Arabidopsis thaliana, UniProt Q9M8K6 114-202); experiment: as above
T2 construct: MUTE, Arabidopsis thaliana, C-terminal ACT-like domain, residues 114-202; also called MUTE ACTL domain; source: E. coli BL21, purified (glutathione resin, thrombin, Superdex-200); not shown: GST, N-terminal, cleaved
T2 sequence (looked up): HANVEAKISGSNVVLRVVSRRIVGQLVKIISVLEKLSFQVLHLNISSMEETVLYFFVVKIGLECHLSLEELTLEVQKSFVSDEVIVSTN

SCRM ACTL (405-494) = biological target: T3, SCRM ACTL (405-494) (Arabidopsis thaliana, UniProt Q9LSE2 405-494); experiment: ITC; Malvern PEAQ-ITC, 25 °C, PBS pH 7.4; 150 μM SCRM ACTL/SCRM L484F ACTL injected into 15 μM SPCH ACTL/MUTE ACTL
T3 construct: SCREAM (SCRM, ICE1), Arabidopsis thaliana, At3G26744, ACT-like domain, residues 405-494; also called SCRM ACTL domain; source: E. coli BL21, purified (glutathione resin, thrombin, Superdex-200); not shown: GST, N-terminal, cleaved
T3 sequence (looked up): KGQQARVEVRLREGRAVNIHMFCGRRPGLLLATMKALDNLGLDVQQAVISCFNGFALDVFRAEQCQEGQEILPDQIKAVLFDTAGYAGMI

[1] = biological target: T4, SCRM ACTL_(L484F) (405-494) (Arabidopsis thaliana, UniProt Q9LSE2 405-494, L484F); experiment: as above
T4 construct: SCREAM (SCRM, ICE1), Arabidopsis thaliana, At3G26744, ACT-like domain, residues 405-494, L484F (printed L485F in the methods); results, legends and the ITC methods print L484F; the cloning, CD and modelling methods print L485F; also called SCRM-ACTL_(L485F); SCRM L484F ACTL; source: E. coli BL21, purified (glutathione resin, thrombin, Superdex-200); not shown: GST, N-terminal, cleaved
T4 sequence (looked up): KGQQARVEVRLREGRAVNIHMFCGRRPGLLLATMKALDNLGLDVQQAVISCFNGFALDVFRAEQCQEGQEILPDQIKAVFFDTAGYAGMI

SPCH (ΔNSPCH, 98-364) = biological target: T5, SPCH (ΔNSPCH, 98-364) (Arabidopsis thaliana, UniProt Q700C7 98-364); experiment: ITC; Malvern PEAQ-ITC; 40 µM SCRM/SCRMΔC injected into 4 µM SPCH/MUTE/FAMA; PBS, pH 7.2 (Table S1; methods: pH 7.4); 25 °C; single binding site model; means of two experiments
T5 construct: the only recombinant SPCH with bHLH domain that the methods list is ΔNSPCH (98-364); source: E. coli BL21, purified (glutathione resin, thrombin, Superdex-200); not shown: GST, N-terminal, cleaved
T5 sequence (looked up): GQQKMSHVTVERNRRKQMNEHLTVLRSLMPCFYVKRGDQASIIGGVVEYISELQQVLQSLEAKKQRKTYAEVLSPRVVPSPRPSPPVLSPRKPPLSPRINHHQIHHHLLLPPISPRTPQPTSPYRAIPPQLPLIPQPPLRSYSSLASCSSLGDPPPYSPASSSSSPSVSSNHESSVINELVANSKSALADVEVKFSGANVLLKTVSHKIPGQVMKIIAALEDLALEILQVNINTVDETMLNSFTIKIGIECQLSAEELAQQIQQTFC

MUTE (1-202) = biological target: T6, MUTE (1-202) (Arabidopsis thaliana, UniProt Q9M8K6 1-202); experiment: as above
T6 construct: MUTE, Arabidopsis thaliana, residues 1-202; MUTE (1-202) was made both as a GST fusion (pGEX-4T-1, thrombin-cleavable) and with an N-terminal His tag (pET28a); also called MUTE-HIS; MUTE-histag; source: E. coli BL21, purified (Ni-NTA or glutathione resin, Superdex-200)
T6 sequence (looked up): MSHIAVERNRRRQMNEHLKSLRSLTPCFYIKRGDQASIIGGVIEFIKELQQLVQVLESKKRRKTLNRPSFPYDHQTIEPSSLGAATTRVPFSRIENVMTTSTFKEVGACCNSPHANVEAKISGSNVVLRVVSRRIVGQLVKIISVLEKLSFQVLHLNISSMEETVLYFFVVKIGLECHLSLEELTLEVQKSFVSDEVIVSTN

FAMA (ΔNFAMA) = biological target: T7, FAMA (ΔNFAMA) (Arabidopsis thaliana, Limits not printed. Start set by analogy with the printed ΔNSPCH 98-364 (one residue before the annotated bHLH). Runs to the native C-terminus. Tag or fusion carrier omitted.); experiment: as above
T7 chain: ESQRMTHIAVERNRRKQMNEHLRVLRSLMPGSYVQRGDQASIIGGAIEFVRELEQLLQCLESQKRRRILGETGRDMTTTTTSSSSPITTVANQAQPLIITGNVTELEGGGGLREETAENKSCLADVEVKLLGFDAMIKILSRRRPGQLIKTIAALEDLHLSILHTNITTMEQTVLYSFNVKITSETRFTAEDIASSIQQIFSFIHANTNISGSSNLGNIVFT

ΔNFAMA, recombinant = biological target: T8, ΔNFAMA, recombinant (Arabidopsis thaliana, Limits not printed. Start set by analogy with the printed ΔNSPCH 98-364, which starts one residue before its annotated bHLH (99); FAMA bHLH is 194-245. Runs to the native C-terminus, including the ACT); experiment: ITC; Malvern PEAQ-ITC, 25 °C, PBS pH 7.4; 40 μM SCRM/SCRMΔC injected into 4 μM SPCH/MUTE/FAMA; single binding site model
T8 chain: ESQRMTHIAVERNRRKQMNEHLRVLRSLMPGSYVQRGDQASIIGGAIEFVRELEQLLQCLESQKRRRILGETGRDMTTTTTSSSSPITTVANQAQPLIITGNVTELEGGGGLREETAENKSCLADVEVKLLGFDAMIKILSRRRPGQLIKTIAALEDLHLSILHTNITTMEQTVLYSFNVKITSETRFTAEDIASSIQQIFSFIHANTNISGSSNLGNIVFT

[2] = biological target: T9, ΔNSPCH (98-364), recombinant (Arabidopsis thaliana, UniProt Q700C7 98-364); experiment: as above
T9 construct: BLI and ITC name it only SPCH; ΔNSPCH (98-364) is the only long recombinant SPCH construct that the methods list; also called purified SPCH; source: E. coli BL21, purified (glutathione resin, thrombin, Superdex-200); not shown: GST, N-terminal, cleaved
T9 sequence (looked up): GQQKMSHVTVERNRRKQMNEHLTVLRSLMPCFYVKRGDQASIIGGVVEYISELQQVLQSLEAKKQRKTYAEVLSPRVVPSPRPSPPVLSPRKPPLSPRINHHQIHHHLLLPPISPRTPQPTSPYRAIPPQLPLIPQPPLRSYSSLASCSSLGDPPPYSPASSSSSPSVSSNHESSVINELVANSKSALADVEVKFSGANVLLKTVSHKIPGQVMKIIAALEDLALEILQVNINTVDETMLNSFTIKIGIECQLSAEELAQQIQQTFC

[3] = biological target: T10, MUTE (1-202), recombinant (Arabidopsis thaliana, UniProt Q9M8K6 1-202); experiment: as above
T10 construct: MUTE, Arabidopsis thaliana, residues 1-202; MUTE (1-202) was cloned both in pGEX-4T-1 (N-terminal GST, thrombin cleaved) and in pET28a (N-terminal His tag); also called purified MUTE; MUTE-HIS; source: E. coli BL21, purified (Ni-NTA, Superdex-200)
T10 sequence (looked up): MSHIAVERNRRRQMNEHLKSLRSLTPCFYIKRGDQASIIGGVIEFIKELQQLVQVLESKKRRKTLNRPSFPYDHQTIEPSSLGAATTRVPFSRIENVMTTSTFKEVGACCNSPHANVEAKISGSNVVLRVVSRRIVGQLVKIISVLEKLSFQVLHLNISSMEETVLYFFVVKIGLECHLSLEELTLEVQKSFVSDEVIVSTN

B1: SCRM ACTL (405-494) (domain or fragment, Arabidopsis thaliana, UniProt Q9LSE2 405-494, looked up)
chain: KGQQARVEVRLREGRAVNIHMFCGRRPGLLLATMKALDNLGLDVQQAVISCFNGFALDVFRAEQCQEGQEILPDQIKAVLFDTAGYAGMI
notes: SCREAM (SCRM, ICE1), Arabidopsis thaliana, At3G26744, C-terminal ACT-like domain, residues 405-494; also called SCRM ACTL domain; source: E. coli BL21, purified (glutathione resin, Superdex-200)
stoichiometry N (SPCH-ACTL (285-364)): 0.95 | stoichiometry N (MUTE-ACTL (114-202)): 0.95

B2: SPCH-ACTL (285-364) (domain or fragment, Arabidopsis thaliana, UniProt Q700C7 285-364, looked up)
chain: LADVEVKFSGANVLLKTVSHKIPGQVMKIIAALEDLALEILQVNINTVDETMLNSFTIKIGIECQLSAEELAQQIQQTFC
notes: source: E. coli BL21, purified (glutathione resin, thrombin, Superdex-200); not shown: GST, N-terminal, cleaved
Kd (SCRM ACTL (405-494)): 1200 nM | Kd [1]: 1700 nM

B3: SCRM (1-494), GST removed (natural protein, Arabidopsis thaliana, UniProt Q9LSE2 1-494, looked up)
chain: MGLDGNNGGGVWLNGGGGEREENEEGSWGRNQEDGSSQFKPMLEGDWFSSNQPHPQDLQMLQNQPDFRYFGGFPFNPNDNLLLQHSIDSSSSCSPSQAFSLDPSQQNQFLSTNNNKGCLLNVPSSANPFDNAFEFGSESGFLNQIHAPISMGFGSLTQLGNRDLSSVPDFLSARSLLAPESNNNNTMLCGGFTAPLELEGFGSPANGGFVGNRAKVLKPLEVLASSGAQPTLFQKRAAMRQSSGSKMGNSESSGMRRFSDDGDMDETGIEVSGLNYESDEINESGKAAESVQIGGGGKGKKKGMPAKNLMAERRRRKKLNDRLYMLRSVVPKISKMDRASILGDAIDYLKELLQRINDLHNELESTPPGSLPPTSSSFHPLTPTPQTLSCRVKEELCPSSLPSPKGQQARVEVRLREGRAVNIHMFCGRRPGLLLATMKALDNLGLDVQQAVISCFNGFALDVFRAEQCQEGQEILPDQIKAVLFDTAGYAGMI
notes: SCREAM (SCRM, ICE1), Arabidopsis thaliana, At3G26744, residues 1-494; Used for ITC; the methods tell thrombin cleavage of the GST-fused proteins in general, not for ITC by name; also called SCREAM; ICE1; source: E. coli BL21, purified (glutathione resin, thrombin, Superdex-200); not shown: GST, N-terminal, cleaved
stoichiometry N (SPCH (ΔNSPCH, 98-364)): 1.02 | stoichiometry N (MUTE (1-202)): 1.03 | stoichiometry N (FAMA (ΔNFAMA)): 0.91

B4: SCRM (1-494), recombinant (natural protein, Arabidopsis thaliana, UniProt Q9LSE2 1-494, looked up)
chain: MGLDGNNGGGVWLNGGGGEREENEEGSWGRNQEDGSSQFKPMLEGDWFSSNQPHPQDLQMLQNQPDFRYFGGFPFNPNDNLLLQHSIDSSSSCSPSQAFSLDPSQQNQFLSTNNNKGCLLNVPSSANPFDNAFEFGSESGFLNQIHAPISMGFGSLTQLGNRDLSSVPDFLSARSLLAPESNNNNTMLCGGFTAPLELEGFGSPANGGFVGNRAKVLKPLEVLASSGAQPTLFQKRAAMRQSSGSKMGNSESSGMRRFSDDGDMDETGIEVSGLNYESDEINESGKAAESVQIGGGGKGKKKGMPAKNLMAERRRRKKLNDRLYMLRSVVPKISKMDRASILGDAIDYLKELLQRINDLHNELESTPPGSLPPTSSSFHPLTPTPQTLSCRVKEELCPSSLPSPKGQQARVEVRLREGRAVNIHMFCGRRPGLLLATMKALDNLGLDVQQAVISCFNGFALDVFRAEQCQEGQEILPDQIKAVLFDTAGYAGMI
notes: SCREAM (SCRM, ICE1), Arabidopsis thaliana, At3G26744, residues 1-494; the purification methods tell thrombin cleavage; source: E. coli BL21, purified (glutathione resin, thrombin, Superdex-200); not shown: GST, N-terminal, cleaved
stoichiometry N (ΔNFAMA, recombinant): 1 | stoichiometry N [2]: 1 | stoichiometry N [3]: 1
